± gives the uncertainty stated by the source.
B1: Protein piccolo, residues 1058 to 1114; numbered along this chain, Q9Y6V0 (parent)
chain: TCPLCKTELNIGSKDPPNFNTCTECKNQVCNLCGFNPTPHLTEIQEWLCLNCQTQRA

Variants of: B1
Test: abundance fitness (aPCA) (normalised: wild type 0, dead -1); higher = more abundant; growth selection in yeast, the domain comes from the species named
Settings: Homo sapiens

| Variant | abundance fitness |
| --- | --- |
| TDPLCKTELNIGSKDPPNFNTCTECKNQVCNLCGFNPTPHLTEIQEWLCLNCQTQRA | -0.536 ± 0.18 |
| TEPLCKTELNIGSKDPPNFNTCTECKNQVCNLCGFNPTPHLTEIQEWLCLNCQTQRA | -0.557 ± 0.23 |
| TFPLCKTELNIGSKDPPNFNTCTECKNQVCNLCGFNPTPHLTEIQEWLCLNCQTQRA | -1.11 ± 0.2 |
| TGPLCKTELNIGSKDPPNFNTCTECKNQVCNLCGFNPTPHLTEIQEWLCLNCQTQRA | -0.877 ± 0.13 |
| THPLCKTELNIGSKDPPNFNTCTECKNQVCNLCGFNPTPHLTEIQEWLCLNCQTQRA | -0.834 ± 0.26 |
| TIPLCKTELNIGSKDPPNFNTCTECKNQVCNLCGFNPTPHLTEIQEWLCLNCQTQRA | -1.23 ± 0.28 |
| TKPLCKTELNIGSKDPPNFNTCTECKNQVCNLCGFNPTPHLTEIQEWLCLNCQTQRA | -0.831 ± 0.26 |
| TMPLCKTELNIGSKDPPNFNTCTECKNQVCNLCGFNPTPHLTEIQEWLCLNCQTQRA | -0.983 ± 0.27 |
| TNPLCKTELNIGSKDPPNFNTCTECKNQVCNLCGFNPTPHLTEIQEWLCLNCQTQRA | -0.156 ± 0.18 |
| TPPLCKTELNIGSKDPPNFNTCTECKNQVCNLCGFNPTPHLTEIQEWLCLNCQTQRA | -1.1 ± 0.19 |
| TRPLCKTELNIGSKDPPNFNTCTECKNQVCNLCGFNPTPHLTEIQEWLCLNCQTQRA | -0.991 ± 0.19 |
| TSPLCKTELNIGSKDPPNFNTCTECKNQVCNLCGFNPTPHLTEIQEWLCLNCQTQRA | -0.687 ± 0.13 |
| TTPLCKTELNIGSKDPPNFNTCTECKNQVCNLCGFNPTPHLTEIQEWLCLNCQTQRA | -0.705 ± 0.16 |
| TVPLCKTELNIGSKDPPNFNTCTECKNQVCNLCGFNPTPHLTEIQEWLCLNCQTQRA | -1.11 ± 0.16 |
| TWPLCKTELNIGSKDPPNFNTCTECKNQVCNLCGFNPTPHLTEIQEWLCLNCQTQRA | -0.904 ± 0.15 |
| TYPLCKTELNIGSKDPPNFNTCTECKNQVCNLCGFNPTPHLTEIQEWLCLNCQTQRA | -1.15 ± 0.15 |
| TCALCKTELNIGSKDPPNFNTCTECKNQVCNLCGFNPTPHLTEIQEWLCLNCQTQRA | -0.245 ± 0.11 |
| TCCLCKTELNIGSKDPPNFNTCTECKNQVCNLCGFNPTPHLTEIQEWLCLNCQTQRA | 0.148 ± 0.14 |
| TCDLCKTELNIGSKDPPNFNTCTECKNQVCNLCGFNPTPHLTEIQEWLCLNCQTQRA | 0.095 ± 0.18 |
| TCELCKTELNIGSKDPPNFNTCTECKNQVCNLCGFNPTPHLTEIQEWLCLNCQTQRA | -0.32 ± 0.2 |
| TCFLCKTELNIGSKDPPNFNTCTECKNQVCNLCGFNPTPHLTEIQEWLCLNCQTQRA | -0.216 ± 0.17 |
| TCGLCKTELNIGSKDPPNFNTCTECKNQVCNLCGFNPTPHLTEIQEWLCLNCQTQRA | -0.137 ± 0.11 |

| Variant | abundance fitness |
| --- | --- |
| TCILCKTELNIGSKDPPNFNTCTECKNQVCNLCGFNPTPHLTEIQEWLCLNCQTQRA | -0.073 ± 0.18 |
| TCKLCKTELNIGSKDPPNFNTCTECKNQVCNLCGFNPTPHLTEIQEWLCLNCQTQRA | -0.248 ± 0.17 |
| TCLLCKTELNIGSKDPPNFNTCTECKNQVCNLCGFNPTPHLTEIQEWLCLNCQTQRA | -0.282 ± 0.092 |
| TCQLCKTELNIGSKDPPNFNTCTECKNQVCNLCGFNPTPHLTEIQEWLCLNCQTQRA | -0.506 ± 0.19 |
| TCRLCKTELNIGSKDPPNFNTCTECKNQVCNLCGFNPTPHLTEIQEWLCLNCQTQRA | -0.175 ± 0.084 |
| TCSLCKTELNIGSKDPPNFNTCTECKNQVCNLCGFNPTPHLTEIQEWLCLNCQTQRA | -0.078 ± 0.097 |
| TCTLCKTELNIGSKDPPNFNTCTECKNQVCNLCGFNPTPHLTEIQEWLCLNCQTQRA | -0.016 ± 0.12 |
| TCVLCKTELNIGSKDPPNFNTCTECKNQVCNLCGFNPTPHLTEIQEWLCLNCQTQRA | -0.294 ± 0.11 |
| TCWLCKTELNIGSKDPPNFNTCTECKNQVCNLCGFNPTPHLTEIQEWLCLNCQTQRA | -0.984 ± 0.14 |
| TCYLCKTELNIGSKDPPNFNTCTECKNQVCNLCGFNPTPHLTEIQEWLCLNCQTQRA | -0.142 ± 0.16 |
| TCPACKTELNIGSKDPPNFNTCTECKNQVCNLCGFNPTPHLTEIQEWLCLNCQTQRA | 0.087 ± 0.11 |
| TCPCCKTELNIGSKDPPNFNTCTECKNQVCNLCGFNPTPHLTEIQEWLCLNCQTQRA | -0.043 ± 0.12 |
| TCPDCKTELNIGSKDPPNFNTCTECKNQVCNLCGFNPTPHLTEIQEWLCLNCQTQRA | 0.17 ± 0.13 |
| TCPECKTELNIGSKDPPNFNTCTECKNQVCNLCGFNPTPHLTEIQEWLCLNCQTQRA | -0.288 ± 0.14 |
| TCPFCKTELNIGSKDPPNFNTCTECKNQVCNLCGFNPTPHLTEIQEWLCLNCQTQRA | -0.376 ± 0.15 |
| TCPGCKTELNIGSKDPPNFNTCTECKNQVCNLCGFNPTPHLTEIQEWLCLNCQTQRA | 0.067 ± 0.084 |
| TCPHCKTELNIGSKDPPNFNTCTECKNQVCNLCGFNPTPHLTEIQEWLCLNCQTQRA | 0.054 ± 0.2 |
| TCPICKTELNIGSKDPPNFNTCTECKNQVCNLCGFNPTPHLTEIQEWLCLNCQTQRA | -0.048 ± 0.19 |
| TCPKCKTELNIGSKDPPNFNTCTECKNQVCNLCGFNPTPHLTEIQEWLCLNCQTQRA | -0.569 ± 0.23 |
| TCPMCKTELNIGSKDPPNFNTCTECKNQVCNLCGFNPTPHLTEIQEWLCLNCQTQRA | 0.075 ± 0.1 |
| TCPNCKTELNIGSKDPPNFNTCTECKNQVCNLCGFNPTPHLTEIQEWLCLNCQTQRA | 0.036 ± 0.21 |
| TCPPCKTELNIGSKDPPNFNTCTECKNQVCNLCGFNPTPHLTEIQEWLCLNCQTQRA | -0.693 ± 0.15 |

| Variant | abundance fitness |
| --- | --- |
| TCPQCKTELNIGSKDPPNFNTCTECKNQVCNLCGFNPTPHLTEIQEWLCLNCQTQRA | 0.028 ± 0.19 |
| TCPRCKTELNIGSKDPPNFNTCTECKNQVCNLCGFNPTPHLTEIQEWLCLNCQTQRA | -0.054 ± 0.092 |
| TCPSCKTELNIGSKDPPNFNTCTECKNQVCNLCGFNPTPHLTEIQEWLCLNCQTQRA | 0.006 ± 0.092 |
| TCPTCKTELNIGSKDPPNFNTCTECKNQVCNLCGFNPTPHLTEIQEWLCLNCQTQRA | -0.051 ± 0.15 |
| TCPVCKTELNIGSKDPPNFNTCTECKNQVCNLCGFNPTPHLTEIQEWLCLNCQTQRA | -0.308 ± 0.095 |
| TCPWCKTELNIGSKDPPNFNTCTECKNQVCNLCGFNPTPHLTEIQEWLCLNCQTQRA | -0.576 ± 0.13 |
| TCPYCKTELNIGSKDPPNFNTCTECKNQVCNLCGFNPTPHLTEIQEWLCLNCQTQRA | -0.088 ± 0.14 |
| TCPLAKTELNIGSKDPPNFNTCTECKNQVCNLCGFNPTPHLTEIQEWLCLNCQTQRA | -0.844 ± 0.082 |
| TCPLDKTELNIGSKDPPNFNTCTECKNQVCNLCGFNPTPHLTEIQEWLCLNCQTQRA | -0.606 ± 0.095 |
| TCPLEKTELNIGSKDPPNFNTCTECKNQVCNLCGFNPTPHLTEIQEWLCLNCQTQRA | -0.812 ± 0.16 |
| TCPLFKTELNIGSKDPPNFNTCTECKNQVCNLCGFNPTPHLTEIQEWLCLNCQTQRA | -1.11 ± 0.091 |
| TCPLGKTELNIGSKDPPNFNTCTECKNQVCNLCGFNPTPHLTEIQEWLCLNCQTQRA | -0.685 ± 0.088 |
| TCPLHKTELNIGSKDPPNFNTCTECKNQVCNLCGFNPTPHLTEIQEWLCLNCQTQRA | -0.142 ± 0.077 |
| TCPLIKTELNIGSKDPPNFNTCTECKNQVCNLCGFNPTPHLTEIQEWLCLNCQTQRA | -1.06 ± 0.092 |
| TCPLKKTELNIGSKDPPNFNTCTECKNQVCNLCGFNPTPHLTEIQEWLCLNCQTQRA | -0.63 ± 0.18 |
| TCPLLKTELNIGSKDPPNFNTCTECKNQVCNLCGFNPTPHLTEIQEWLCLNCQTQRA | -1.17 ± 0.087 |
| TCPLMKTELNIGSKDPPNFNTCTECKNQVCNLCGFNPTPHLTEIQEWLCLNCQTQRA | -0.927 ± 0.13 |
| TCPLNKTELNIGSKDPPNFNTCTECKNQVCNLCGFNPTPHLTEIQEWLCLNCQTQRA | -0.693 ± 0.084 |
| TCPLPKTELNIGSKDPPNFNTCTECKNQVCNLCGFNPTPHLTEIQEWLCLNCQTQRA | -1.01 ± 0.089 |
| TCPLQKTELNIGSKDPPNFNTCTECKNQVCNLCGFNPTPHLTEIQEWLCLNCQTQRA | -0.689 ± 0.15 |
| TCPLRKTELNIGSKDPPNFNTCTECKNQVCNLCGFNPTPHLTEIQEWLCLNCQTQRA | -0.906 ± 0.09 |

Source: the Human Domainome abundance scans (Beltran et al. 2025)
